Assay: yeast display, Sf9 membrane polyspecificity reagent, FACS + sequencing; frameworks hold sequencing errors
How it was run: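 After 36–48 hours of galactose induction, yeast (Saccharomyces cerevisiae BJ5465) displaying a synthetic nanobody library were stained at 4 °C for 1 hour with 10% biotinylated, detergent-solubilized Sf9 membrane reagent. Streptavidin microbeads enriched the stained cells before FACS sorting into low and high (top ~1%) gates on anti-HA and streptavidin fluorescence. Each clone's polyreactivity label reflects its gate of origin.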

| Sequence | polyreactivity (PSR sort gate) |
| --- | --- |
| QVQLVESGGGLVQAGGSLRLSCAASGFIFGPNAMGWYRQAPGKERELVAAIRWSGSRTYYADSVKGRFTISRDNAKNTVYLQMNSLKPEDTAVYYCATTYGYYTYDYWGQGTQVTVSS | high polyreactivity |
| QVQLVESGGGLVQAGGSLRLSCAASGNIFGVYAMGWYRQAPGKERELVAAITSGGTSTSYADSVKGRFTISRDNAKNTVYLQINSLKPEDTAVYYCATESSGKLSEYAYWGQGTQVTVSS | low polyreactivity |
| QVQLVESGGGLVQAGGSLRLSCAASGSIFYLYVMGWYRQAPGKERELVAAINWSGSRTYYADSVKGRFTISRDNAKNTVYLQMNSLKPEDTAVYYCNAVRATGQASQEGEYWGQGTQVTVSS | high polyreactivity |
| QVQLVESGGGLVQAGGSLRLSCAASGSIFAKYAMGWYRQAPGKERELVAAITYSSSSTYYADSVKGRFTISRDNAKNTVYLQMNSLKPEDTAVYYCAARKKARGHGGNDYWGQGTLVTVSS | high polyreactivity |
| QVQLVESGGGLVQAGGSLRLSCAASGRTFRLYAMGWYRQAPGKERQLVAAIDGNGGSTYYADSVKGRFTISRDNAKNTVYLQMNSLKPEDTAVYYCAVSVSVYLDYRRDHQRGYDYWGQGTQVTVSS | low polyreactivity |
| QVQLVESGGGLVQAGGSLRLSCAASGFTFRKYTMGWYRQAPGKERELVAAITNSGTSTYYADSVKGRFTISRDNAKNTVYLQMNSLKPEDTAVYYCARDNEPDYYSYPYDYWGQGTQVTVSS | low polyreactivity |
| QVQLVESGGGLVQAGGSLRLSCAASGRTFYDNAMGWYRQAPGKERELVAVISTSGARTYYADSVKGRFTISRDNAKNTVYLQMNSLKPEDTAVYYCAAGPALWQAYRMYYWGQGTQVTVSS | high polyreactivity |
| QVQLVESGGGLVQAGGSLRLSCSASGSIFSENTMGGYRQAPGKKRELVADITSGGSTNYADSVKGRFTISRDNAKNTVYLQMNSLKPEDTAVYYCAADYNGEYDYWGQGTQVTVSS | low polyreactivity |
| QVQLVESGGGLVQAGGSLRLSCSASGITFTSYAMGWYRQAPGKERELVASIDSDDSTNYADSVKGRFTISLDNAKNTVYLQMNSLKPEDTAVYYCNADYLTVSWSIPEHVTVRLMYYWGQGTQVTVSS | low polyreactivity |
| QVQLVESGGGLVQAGGSLRLSCAASGSIFTFYAMGWYRQAPGKERELVAAISWSGGSTYYADSVKGRFTISRDNAKNTVYLQMNSLKPEDTAVYYCAARYYVYSSRAQYHHYDYWGQGTQVTVSS | high polyreactivity |
| QVQLVESGVGLVQAGGSLRLSCAASGIIFGFYAMGWYRQAPGKERELVAAISVSGGSTNYADSVKGRFTISRDNAKNTVYLQMNSLKPEDTAVYYCAARVRDSLVYGGWDDYWGQGTQVTVSS | high polyreactivity |
| QVQLVESGGGLVQAGGSLRLSCAASGSIFGFYAMGWYRQAPGKERELVAVISVSDGSTYYADSVKGRFTISRDNAKNTVYLQMNCLKPEDTAVYYCAATPRGSYGYYYWGQGTQVTVSS | low polyreactivity |
| QVQLVESGGGLVQAGGILRLSCPASGRTFEYYAMGWYRQAPGKERELVASISFGGGSTYADSVKGRFTISRDNAKNTVYLQMNSLKPEDTAVYYCAATGGWYKHWFDYWGQGTQVTVSS | low polyreactivity |
| QVQLVESGGGLVQAGGSLRLSCPASGRTFYTNAMGWYRHAPGKERELVAAITRGGSTYYADSVKGRFTISRDNAKNTVYLQMYSLKPEDTAVYYCAAAYASSWRQRVTSEKGYYWGQGTQVTVSS | high polyreactivity |
| QDQLVESGGGLVQAGGSLRLSCAASGRTFAFKSMGWYRQAPGKERELVAAIRWSGGTTYYADSVKGRFTISRDNANNTVYLQMNSLKPEDTAVYYCATGKWVYFRYNYWGLGTQVTVSS | high polyreactivity |
| QVQLVESGGGLVQAGGSLRLICAASGSTFAYNDMGWYRQAPGTERELVADIRSGGNTNYADSVKGRFTISRDNAKNTVYLQMNSLKPEDTAVYYCATDGYRIDVYHPDYRYDYWGQGTQVTVSS | low polyreactivity |

| Sequence | polyreactivity (PSR sort gate) |
| --- | --- |
| QVQLVESGGGLVQAGGSLRLSCAASGITFIYYAMGSYRQAPGKERELVAAISKSGGRTYYADSVKGRFTISRDNAKNTVYLQMNSLKPEDSAVYYCNKLVGDDTSLYDYWGQGTQVTVSS | high polyreactivity |
| QVQLVESGGGLVQAGGSLRLSCAASGLIFTVNTMGWYRQAPGKERELVATIHTIGDGTNYADSVKGRFTISRDNAKNTVYLQMNSLKPEDTAVYYCAAYAGSVRPGDLYGYDYWGQGTQVTVSS | low polyreactivity |
| QVQLVESGGGLVQAGVSLRLSCAASGSTFTYNAKGWYRQEPGKEMELVAAIRSNGGSTYADSVKGRFTISRDNAKNTVYFQMNSMKPEDTAVYYCAARWRDYYRWGSRGGYGYWGQGTQVTVSS | high polyreactivity |
| QFQLVESGRGLVQAGGSLRLSCAASVRIFRGYAKGWYRQAPGKEREFVAANTKNGGSTYYADSVKGRFTISRDYAKNTVYLQMNSLKPEDTAVYYCAVRAWEPYTGKSDYWGQGTQVTVSS | low polyreactivity |
| QDQLVESGGGLVQAGGSLRLSCAASGRTFRYYAMGWYRQAPRKERELVAAISSGGSTNYADSVKARFTISRDNAKNTVYLQMNRLKPEDTGVYYCAVQAWYMTYSYPYSKGYYWGQGTQLTVSS | high polyreactivity |
| QVQLEESGGGLVQAGGSLRLSCAASGTILDSNAIGWYRQAPGKERELVAAITSCGSTYYADSVKGRFTISRDNAKNTVYLQMNSLKPEDTAVYYCAAAYLGYVAVQPSYEVGYWGQGTQVTVSS | low polyreactivity |
| QVQLVESGGGLVQAGGSLRLSCAASGFTYIYYAMGWYRQAPGKERELVAAITSGGRTYYADSVKGRFTISRDNAKNTVYLQMNSLKPEDTAVYYCAKRFTLPLSEYDYWGQGTQVIVSS | high polyreactivity |
| QVQLVESGGGLVQAGGSLRLSCAASGRIFWYYAMGWYRQAPGKERELVAAITRGGITTYADSVKGRYTISRDNAKNTVYLQMNSLKPEDTAVYYCNAVPWYGRMDYWGQGTQVTVSS | low polyreactivity |
| QDQLVESCGGLVQAGGSLRLSCAASGHIFIYYAMGWYRQAPWKERELVAVISGSGGRTYYADSVKGRFTISRDYAKNTVSLQMNSLKPEDTAVYYCAAAVRYYPHYDSWGQGTQVNVSS | low polyreactivity |
| QVQLQESGGGLVQAGGSLRLSCAASGSISSPQFMGWYRQAPGIERELVATIANGGITYYADGVKGRFTISRDNAKNTVYLQMNSLKPEDTAVYYCNARSQGWYNTFYYWGQGTQVTVSS | low polyreactivity |
| QVQLVESGGVLVQAGGSLRLSCAASGSTFDSYAMGWYRQAPGKERELVAAISYGGGSTYYADSVKGRFTISRDNAKNTVYLQMNSLKPEDTAVYYCAARNARGVVGRTESKVTYDYWGQGTQVTVSS | high polyreactivity |
| QVQLVESGGGLVQAGGSLRLSCAASGRIFRYYAMGWYRQAPGKERELVAAINTSTGSTYYADSVKGRFTISRDNAKNTVYLQMNSLKPEDTAVYYCATGWHYYRSLRGGLAWPGGYWGQGTQVTVSS | high polyreactivity |
| QVQLEESVGGLVQEGGSLRLTCAASGRIFGNTMGWYRQAPWKEMELVAAITRSGVSTYYADSVKGRFTSSRDNAKNTVYLQMNSLKPEDTAVYYCADASSYYRGHYDYWGQGTQVTVSS | high polyreactivity |
| QVQVVESGGGLVQAGGSLRLICAASGRIFDSNAMGWYRQEPVKERELVARIDPGDDTNSADSVKGRFTISRDNAKNTLYLQMNSLKPEDTAVYYCATDPDYVLYRTAYYEYDYWGQGTQVTVSS | low polyreactivity |
| QVQLQESGGGLVQVGGSQRLSCAASGNNFYNYAMGWYRHAQGKEREFDATINHGTSINYADSVKGRFTISRDNAKNTVYLQMNSLKPEDTAVYYCAADLSWTDNLFYWGQGTQVTVSS | low polyreactivity |

— the nanobody polyreactivity screen of Harvey et al. (2022)
